The values that follow come from patent US20080317723A1, “LYMPHATIC ENDOTHELIAL CELLS MATERIALS AND METHODS” (VEGENICS LIMITED, priority 2001, published 2008).

Holding throughout (assay type): cell-based, human
For test [1], the system named is HMVE cells. The test is described as follows: Serum starvation-induced apoptosis, cytoplasmic histone-associated DNA fragments (ELISA), non-sorted HMVE cells. The following applies: non-sorted microvascular endothelial cells, serum-free 24 h, FIG. 2A. From the text: FIG. 2A-FIG. 2B. VEGFR-2 and VEGFR-3, but not VEGFR-1 activating ligands inhibit apoptosis of serum-deprived HMVE cells. Measurement of the cytoplasmic histone-associated DNA fragments (mono- and oligonucleosomes) in serum-starved HMVE cells consisting of two cell populations of blood vascular and lymphatic endothelial cells (FIG. 2A) or in the isolated cell populations after magnetic cell sorting using VEGFR-3 antibodies (FIG. 2B). The enrichment factor of cytoplasmic oligonucleosomes in the apoptotic cells grown for 24 h in serum-free medium (BSA) was chosen as 100 (%). Data represent mean values from three independent experiments (mean±s.d.). […] Analysis of endothelial cell apoptosis. For the apoptosis assay, 70,000 cells per well were seeded into 24-well plates. Treatments were done in duplicates and apoptosis was detected by measuring cytoplasmic histone-associated DNA fragments using the death detection ELISA PLUS kit (Roche, Indianapolis, Ind.). […] Annexin-V-FLUOS (Roche, Indianapolis, Ind.) was used to detect phosphatidylserine on the apoptotic cells by fluorescence microscopy according to the instructions of the manufacturer. The simultaneous staining with propidium iodide (1 μg/ml) was used for discriminating possible necrotic cells.
For orientation: ELISA stands for enzyme-linked immunosorbent assay.

Test [2] has as its system VEGFR-3 expressing lymphatic endothelial cells. Put plainly: Serum starvation-induced apoptosis, cytoplasmic mono- and oligonucleosomes, isolated VEGFR-3 positive cells. As to conditions: for cell survival during serum starvation: VEGFR-3 expressing cells, FIG. 2B. From the text: FIG. 2A-FIG. 2B. VEGFR-2 and VEGFR-3, but not VEGFR-1 activating ligands inhibit apoptosis of serum-deprived HMVE cells. Measurement of the cytoplasmic histone-associated DNA fragments (mono- and oligonucleosomes) in serum-starved HMVE cells consisting of two cell populations of blood vascular and lymphatic endothelial cells (FIG. 2A) or in the isolated cell populations after magnetic cell sorting using VEGFR-3 antibodies (FIG. 2B). The enrichment factor of cytoplasmic oligonucleosomes in the apoptotic cells grown for 24 h in serum-free medium (BSA) was chosen as 100 (%). Data represent mean values from three independent experiments (mean±s.d.). […] Isolation of lymphatic and blood vascular endothelial cells. […] Analysis of endothelial cell apoptosis. For the apoptosis assay, 70,000 cells per well were seeded into 24-well plates. Treatments were done in duplicates and apoptosis was detected by measuring cytoplasmic histone-associated DNA fragments using the death detection ELISA PLUS kit (Roche, Indianapolis, Ind.). […] Annexin-V-FLUOS (Roche, Indianapolis, Ind.) was used to detect phosphatidylserine on the apoptotic cells by fluorescence microscopy according to the instructions of the manufacturer. The simultaneous staining with propidium iodide (1 μg/ml) was used for discriminating possible necrotic cells.

Test [3] deals with HMVE cells. Put plainly: Annexin-V staining of serum-starved HMVE cells with podoplanin co-staining. As to conditions: 72 hours serum-free medium; podoplanin positive vs negative cells, FIG. 3. How it is done: FIG. 3. Quantitation of the Annexin-V positive cells (% of adherent cells) in the podoplanin positive and negative cell populations after 72 hours of serum starvation. Data represent mean values from five counted areas (×400) (mean±s.d.).
Analysis of endothelial cell apoptosis. For the apoptosis assay, 70,000 cells per well were seeded into 24-well plates. Treatments were done in duplicates and apoptosis was detected by measuring cytoplasmic histone-associated DNA fragments using the death detection ELISA PLUS kit (Roche, Indianapolis, Ind.). The following ranges of growth factor concentrations were tested: bFGF 10-20 ng/ml, PlGF-1 50-1000 ng/ml, VEGF 10-50 ng/ml, VEGF-C 50-1000 ng/ml, VEGF-D 50-1000 ng/ml, VEGF-C156S 50-1000 ng/ml and VEGF-E 50-1000 ng/ml. Annexin-V-FLUOS (Roche, Indianapolis, Ind.) was used to detect phosphatidylserine on the apoptotic cells by fluorescence microscopy according to the instructions of the manufacturer. The simultaneous staining with propidium iodide (1 μg/ml) was used for discriminating possible necrotic cells.
Annexin-V staining of the HMVE cells was performed after 72 hours of culture in serum-free medium alone (BSA) or with stimulation of VEGF or VEGF-C. Simultaneous staining using antibodies against podoplanin was used to distinguish lymphatic and blood vascular endothelial cells. […]

For the next test, the system named is p42/p44 MAPK. Put plainly: p42/p44 MAPK Thr202/Tyr204 phosphorylation in HMVE cells, Western blot. How it is done:
Western blot analysis. Endothelial cells were cultured on 35 mm dishes to near confluence, starved for 24 h in serum free medium and stimulated as indicated. Wortmannin ([…]), LY294002 ([…]), PD98059 (10-25 μM) or GF109203X (2.5-5 μM) were added 1-3 h before stimulation, where indicated. DMSO, into which the inhibitors were dissolved, was used as a control. After the stimulation, the cells were lysed in lysis buffer (50 mM HEPES, pH 7.5, 150 mM NaCl, 10 mM EDTA, 100 mM NaF, 1% TritonX-100 supplemented with 2 mM Na3VO4, 0.5 mM PMSF, 100 U/ml approtinin and 10 μg/ml leupeptin). Clarified lysates were separated by SDS-PAGE, transferred to nitrocellulose and immunoblotted using the phosphospecific antibodies for Akt-Ser473, Akt-Thr308, p42/44 MAPK-Thr202/Tyr204 or CREB-Ser133. The bound antibodies were detected using horseradish peroxidase conjugated secondary antibodies and enhanced chemiluminescence detection system. The blots were stripped and reprobed with antibodies against Akt, MAPK or CREB for quantification by reading the optical densities of the signals with Multi-Analyst 2.0.1 program (Bio-Rad).
The p42/p44 MAPK activation was detected by Western blotting using phospho-Thr202/Tyr204-MAPK specific antibodies and CREB phosphorylation using phospho-Ser133 specific antibodies. The growth factor concentrations used were: VEGF 10 ng/ml, VEGF-C 100 ng/ml and VEGF-C156S 500 ng/ml. […] Effects of inhibition of protein kinase C by GF109203X, MEK1 by PD98059 and PI-3 kinase by LY294002 on p42/p44 MAPK Thr202/Tyr204 phosphorylation, CREB Ser133 phosphorylation and Akt Ser473 phosphorylation in HMVE cells. The growth factor concentrations used were: VEGF 1 ng/ml, VEGF-C 10 ng/ml and VEGF-C156S 500 ng/ml
(A western blot detects proteins with antibodies after separation by electrophoresis.)

Where [4] appears, read: serum-deprived lymphatic endothelial cells.

In the case of VEGF, the “protection from starvation induced DNA degradation (cytoplasmic histone-associated DNA fragments)” value in the test with HMVE cells [1] is “able to protect microvascular endothelial cells from starvation induced DNA degradation”. In test [2], the “cell survival during serum starvation” value is “promoted cell survival”. Further, in the test on HMVE cells [3], the “Annexin-V positive cells / survival” value is reported as “strongly decreased the number of cells displaying Annexin-V positivity”. In the test on p42/p44 MAPK, the “duration of MAPK activation, in words” value is “more transient than that induced by VEGF-C” and the “p42/p44 MAPK activation (phosphorylation)” value is listed as “significantly stronger”.

B1: VEGF-C156S: VEGFR-3 specific mutant form of VEGF-C, cysteine 156 changed into serine; recombinant human (Thr103 to Ile225) (protein, UniProt P49767 103-225, looked up, variant C156S)
chain: TEETIKFAAAHYNTEILKSIDNEWRKTQCMPREVCIDVGKEFGVATNTFFKPPSVSVYRCGGCCNSEGLQCMNTSTSYLSKTLFEITVPLSQGPKPVTISFANHTSCRCMSKLDVYRQVHSII
As to B1, the “protection from starvation induced DNA degradation (cytoplasmic histone-associated DNA fragments)” value in the test with HMVE cells [1] is given as “able to protect microvascular endothelial cells from starvation induced DNA degradation”. Besides, the “cell survival during serum starvation” value in test [2] was “induced the survival of only the VEGFR-3 positive cells”. Moreover, in test [2] (setting [4]), the “accumulation of oligo- and mononucleosomes” value was “inhibited dose-dependently”; the “concentration at which the maximum effect was achieved (inhibition of oligo- and mononucleosome accumulation)” value amounted to 500 ng/mL. The “Annexin-V positive cells / survival” value in the test on HMVE cells [3] is “increased the survival of mainly the lymphatic endothelial cells”. Besides, the “p42/p44 MAPK activation (phosphorylation)” value in the test with p42/p44 MAPK was “MAPK activation in HMVE cells was detected”.
